Substitutions are numbered along the chain they refer to.
Key:
Assay in all cases: yeast 2-hybrid; - means 60-100% of the wild type interaction
[1] = target: T1, human β-catenin (Leu218-Leu781) mutant Lys 394 to alanine, Gal-4 activation domain fusion (human, UniProt P35222 218-781)
T1 sequence: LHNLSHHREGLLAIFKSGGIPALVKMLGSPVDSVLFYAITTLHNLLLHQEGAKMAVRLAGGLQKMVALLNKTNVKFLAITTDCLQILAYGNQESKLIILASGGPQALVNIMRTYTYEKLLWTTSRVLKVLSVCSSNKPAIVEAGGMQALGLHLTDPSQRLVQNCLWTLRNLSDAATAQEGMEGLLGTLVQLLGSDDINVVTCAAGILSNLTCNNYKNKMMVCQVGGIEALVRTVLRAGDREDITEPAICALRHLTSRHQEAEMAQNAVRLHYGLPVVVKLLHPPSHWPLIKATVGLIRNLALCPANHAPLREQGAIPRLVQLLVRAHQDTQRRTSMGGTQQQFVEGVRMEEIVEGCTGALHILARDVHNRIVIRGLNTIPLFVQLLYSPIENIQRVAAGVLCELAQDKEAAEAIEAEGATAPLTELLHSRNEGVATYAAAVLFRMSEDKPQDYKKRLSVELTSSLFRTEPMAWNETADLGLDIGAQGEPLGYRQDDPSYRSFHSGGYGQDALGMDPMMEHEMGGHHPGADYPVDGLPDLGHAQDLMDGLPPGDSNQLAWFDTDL
Experimental: (§1) 4. Preparation and testing of mutants of β-catenin modulating the interaction with LEF-1, APC, conductin or E-cadherin The mutagenesis of β-catenin in the armadillo repeats 3–8 was carried out by means of the "mutagenesis kit" of the company Clontech according to the producer's record and the mutants were checked by sequencing (FIG. 5). In all mutants the original amino acid was substituted by alanine. For analyzing the interactions the cDNA of human β-catenin (armadillo repeat 3 up to the C-terminal end of the protein) coding for the amino acids Leu218–Leu7 µl or its mutants was cloned into the fusion vector for the activation domain of Gal-4 (pGAD424, Clontech). The cDNA for the binding domains of the interaction partners was cloned into the Lex-A fusion vector BTM 116. To this end, the cDNA of LEF-1 for the amino acids 1–99, conductin for the amino acids Ala342–ARG465; of human APC for the amino acids His1012–Glu1215 (APC 15 amino acid repeats) and for the amino acids Ser1259Asp 1400 (APC 20 amino acid repeats) and E-cadherin for the amino acids Gin773–Asp884 (cytoplasmatic domain) were amplified with the respective primers PCR. The interaction of the Lex-A hybrids with β-catenin and its mutants was quantified by means of the β-galactosidase reporter activity in the yeast 2-hybrid system (report: "Matchmaker". Clontech) (Tab. 2 and FIG. 6).

[2] = target: T2, human β-catenin (Leu218-Leu781) mutant Trp 383 to alanine, Gal-4 activation domain fusion (human, UniProt P35222 218-781)
T2 sequence: T1 sequence with W166A, A177K
Experimental: as §1

[3] = target: T3, human β-catenin (Leu218-Leu781) mutant Arg 457 to alanine, Gal-4 activation domain fusion (human, UniProt P35222 218-781)
T3 sequence: T1 sequence with A177K, R240A
Experimental: as §1

Measured: binding result

B1: LEF-1 amino acids 1-99 fused to Lex-A (vector BTM 116) (other, UniProt P0A7C2 1-202, looked up)
chain: MKALTARQQEVFDLIRDHISQTGMPPTRAEIAQRLGFRSPNAAEEHLKALARKGVIEIVSGASRGIRLLQEEEEGLPLVGRVAAGEPLLAQQHIEGHYQVDPSLFKPNADFLLRVSGMSMKDIGIMDGDLLAVHKTQDVRNGQVVVARIDDEVTVKRLKKQGNKVELLPENSEFKPIVVDLRQQSFTIEGLAVGVIRNGDWLMPQLSGGGGGGDPELCATDEMIPFKDEGDPQKEKIFAEISHPEEEGDLADIKSSLVNESEIIPASNGHEVVRQAPSSQEPYHDKAREHPDEGKHPDGGL
notes: Order of the fusion follows the vector; also called LEF-1/TCF-4
binds: [1] | [2] | [3]

— patent US7067474B1, “Agents for treating human illnesses based on β-catenin, and the production and use thereof” (Max-Delbruck-Centrum fur Molekulare Medizin, priority 1998, dated 2006)
